Values joined by “and” are separate entries in the source; they are usually repeats but may differ in a detail not shown here. Equal entries are not always repeated. Where two headings read alike, the source gives them in different places.
What was measured:
Assay type in all cases: cell-based
[1] = test system: A431 cells; experiment: VB-48 assay: vitality, viability and necrosis of treatments 1-10 (Table 3); settings: irradiated (I) 32 J/cm^2; RGD 0.5 μM, EGF 0.5 μM, NHSe 5 μM, Pan ~0.1 μM
Experimental: Briefly, A431 cells were labeled with respective probes for specific treatments (listed below); cells were rinsed and evaluated for labeling. The test include the following treatments: […], treatments 3-4 of EGF-IRDye® 700DX at 0.5 μM and radiation, treatments 5-6 of IRDye® 700DX NHSe at 5 μM and radiation, treatments 7-8 of panitumumab-IRDye® 700DX at about 0.1 μM and radiation, treatment 9 of a negative control with no probe and no irradiation, and treatment 10 of RGD-IRDye® 700DX and no irradiation. The probes were incubated for about 10 minutes and with a longer period of about 20 minutes for the RGD probe. The cells were monitored with microscopy and morphology was examination 24 hours post treatment.
Low binding was expected for the RGD probe due to the low level of integrin receptors on A431 cells. […] By 3 hours post-irradiation all treatments except RGD (Treatment 1) show significant cytotoxicity. Vitality, viability and necrosis assays such as a VB-48 assay and JC-1 assay were performed.

[2] = test system: A431 cells; experiment: Cytotoxicity and localization of antibody probe versus small protein ligand probe after irradiation (Example 4)
Experimental: Both probes can bind EGFR and had approximately 2 dye molecule per conjugate molecule. It was assumed that the affinity for the receptor will be different for the antibody (generally pM), compared to the small protein (nM). Although the probe doses were different, the incubation times were the same at only 10 min. After incubation, the probes were rinsed from the cells. FIGS. 7A and 7B illustrates A431 cells that were incubated with IRDye 700DX-panitumumab or IRDye 700DX-EGF, respectively and thereafter irradiated.
Thus, upon irradiation, the production of singlet oxygen occurred at the cell surface. Typically, the EGF ligand is internalized after binding the EGF receptor.

[3] = test system: HTB-186 cells; experiment: JC-1 mitochondrial membrane potential assay (Example 10, Table 8); settings: 32 J/cm^2, probe about 5 hours, 20 hours post irradiation; 700DX-RGD and 700DX-EGF 500 nM
Experimental: (§1) This example illustrates the ability of IRDye® 700DX small molecule conjugates to induce apoptosis in cells, e.g., cancer cells. In this study HTB-186 cells (a desmoplastic cerebellar medulloblastoma cell line) were treated with IRDye® 700DX small molecule conjugates (IRDye® 700DX labeled chlorotoxin, anti-EGFR Affibody®, RGD peptide and EGF ligand). Apoptosis was measured by evaluating caspase 3/7 activity and mitochondrial membrane potential. […]
In this study a mitochondrial membrane potential assay was performed on cells from treatments 1-8 to determine whether the treated cells underwent apoptosis. […] As JC-1 dye accumulated in mitochondria, its fluorescence emission shifts from green (about 529 nm) to red (about 590 nm). The presence of red fluorescence due to JC-1 aggregate formation corresponds to regions of high mitochondrial polarization. Depolarized mitochondria are indicated by green fluorescence of the JC-1 monomers. A detectable decrease in the red/green fluorescence intensity ratio indicates mitochondrial depolarization, and thus, apoptosis. In a membrane potential assay, cells are incubated with the JC-1 dye and fluorescence is detected by, for example, flow cytometry, fluorescence microscopy, and fluorescence-based image cytometry. […]

[4] = test system: A431 cells; experiment: Caspase 3/7 assay, doses of IRDye 700DX-labeled EGF (Table 4)
Experimental: A431 cells were treated with IRDye® 700DX-labeled EGF at a concentration of about 0.1-1 μM for about 8 minutes and irradiated at about 32 J/cm^2.
Briefly, 150,000 cells were plated and incubated overnight at 37° C., 5% CO2. About 1 ml of the probe was added to the appropriate treatments. The cells were rinsed after the incubation period and imaged. The cells were irradiated with a small LED apparatus. The cells were further incubated at 37° C., 5% CO2, and then imaged at 2-3 hours post irradiation. The cells were then harvested and resuspended in 250 μl PBS. The cells were counted in NC-100™ NucleoCounter® (ChemoMetec A/S; Allerod, Denmark). The cells were analyzed according to manufacturer's protocol to perform the caspase3/7 assay (ImmunoChemistry Technologies, LCC, Bloomington, Minn.). NC indicates negative control, e.g., no probe.

[5] = test system: A431 cells
Experimental: A different LED source was tested and evaluated to determine if a second source of LED would yield a similar effect as the standard LED used. A straight forward evaluation was set up with four treatments (treatments A-D). The tests were performed in triplicate in order to examine reproducibility. The test included the following four treatments: treatment A of no probe and irradiation, treatment B of IRdye® 700DX-labeled EGF and no irradiation, treatment C of IRDye® 700DX-labeled EGF and irradiation, and treatment D of IRDye® 700DX-labeled panitumumab and irradiation. The probe dose was about 0.1 μM labeled panitumumab and 0.5 μM 700DX-labeled EGF. Irradiation was for 10 minutes at an irradiation dose of 32 J/cm^2.
Significant and similar effects for both probes together and in triplicate thus providing clear evidence that IRDye® 700DX-labeled small protein can kill cells similarly to an IRDye 700DX-labeled antibody. Conditions for use of either probe may be unique to the individual probe. […] The fluorescent scale of the 700 nm images was the same for both treated sets of cells (FIGS. 12C-12D). Although the exact concentration of the antibody probe is not known, the signals from the different probes appear similar in level and intensity.

[6] = test system: A431 cells; experiment: Photodynamic therapy effect on cell morphology and viability (Example 3); settings: for effect on cell morphology: probe 0.25 μM
Excerpt: This example illustrates the effect of photodynamic therapy based on IRDye® 700DX dye conjugates on cell morphology. Other methods for evaluating changes in morphology during the PDT with additional tests of key apoptotic markers including caspase 3/7, annexin-V, vitality %, mitochondrial potential, localization (intracellular/membrane, endosomal, lysosomal), singlet oxygen generation, other radicals, etc. It was critical to identify important parameters for generating reproducible effects including irradiation level, incubation time, probe type and/or required dose to initiate cytotoxicity. By measuring these key indicators the actions of IRDye® 700DX in its ability to induce cytotoxicity was defined.
FIGS. 6A-6B provide images of the controls which were A431 cells with no irradiation (NI) or with irradiation (I). The probe dose for the respective treatments was 0.25 μM and irradiation level was 16 J/cm^2. […] These are key features of cells undergoing apoptosis and/or necrosis.

[7] = test system: HTB-186 cells; experiment: Caspase 3/7 assay (Example 10, Table 8); settings: 32 J/cm^2, probe about 5 hours, 20 hours post irradiation; 700DX-RGD and 700DX-EGF 500 nM
Experimental: as §1
The caspase 3/7 assay was used to measure caspase 3/7 activity in the cells from the treatments listed above. […] Upon activation, the caspases cleave the substrate, and in turn, a fluorescence signal is emitted. […] The fluorescence can be detected by, for example, flow cytometry, fluorescence microscopy, and fluorescence-based image cytometry.
To determine whether the treated cells are undergoing apoptosis, a caspase 3/7 assay and mitochondrial potential assay were performed. […] Table 8 below provides cells number, % viability, JC-1% shift, and % late apoptotic and dead cells as determined by caspase 3/7 assay.

[8] = test system: HTB-186 cells; experiment: Viability, cell number and microscopy morphology at 20 h post irradiation (Example 10)
Experimental: This example illustrates the ability of IRDye® 700DX small molecule conjugates to induce apoptosis in cells, e.g., cancer cells. In this study HTB-186 cells (a desmoplastic cerebellar medulloblastoma cell line) were treated with IRDye® 700DX small molecule conjugates (IRDye® 700DX labeled chlorotoxin, anti-EGFR Affibody®, RGD peptide and EGF ligand). Apoptosis was measured by evaluating caspase 3/7 activity and mitochondrial membrane potential. Apoptosis can be characterized by a variety of cell morphological and biochemical changes including membrane blebbing, cell shrinkage, alteration of membrane asymmetry and permeability, and/or condensation of chromatin and nucleus (Coleman et al., Nat Cell Biol, 2001, 3(4):339-45, Bortner and Cidlowski, Biochem Pharmacol, 1998, 56(12):1549-59; van Engeland et al., Experimental Cell Research, 1997, 235:421-430).
Microscopy images of cells in petri-dishes were captured at 20 h post irradiation. The images were captured in DIC and 700 nm to visualize the probe, and composite images were generated (DIC+700 nm) to visualize the overlay.
To determine whether the treated cells are undergoing apoptosis, a caspase 3/7 assay and mitochondrial potential assay were performed. All cells from each treatment were recovered and processed accordingly. Table 8 below provides cells number, % viability, JC-1% shift, and % late apoptotic and dead cells as determined by caspase 3/7 assay.

[9] = 0.1 μM, Irradiation about 32 J/cm^2
[10] = 0.25 μM, Irradiation about 32 J/cm^2
[11] = 0.5 μM, Irradiation about 32 J/cm^2
[12] = 1 μM, Irradiation about 32 J/cm^2
[13] = no irradiation (NI), 700DX-EGF 0.5 μM
[14] = 32 J/cm^2, probe about 5 hours, 20 hours post irradiation, 700DX-RGD and 700DX-EGF 500 nM

B1: 700DX-EGF (conjugate, UniProt P01133 23-1207, looked up)
Pro-epidermal growth factor: PQHWSCPEGTLAGNGNSTCVGPAPFLIFSHGNSIFRIDTEGTNYEQLVVDAGVSVIMDFHYNEKRIYWVDLERQLLQRVFLNGSRQERVCNIEKNVSGMAINWINEEVIWSNQQEGIITVTDMKGNNSHILLSALKYPANVAVDPVERFIFWSSEVAGSLYRADLDGVGVKALLETSEKITAVSLDVLDKRLFWIQYNREGSNSLICSCDYDGGSVHISKHPTQHNLFAMSLFGDRIFYSTWKMKTIWIANKHTGKDMVRINLHSSFVPLGELKVVHPLAQPKAEDDTWEPEQKLCKLRKGNCSSTVCGQDLQSHLCMCAEGYALSRDRKYCEDVNECAFWNHGCTLGCKNTPGSYYCTCPVGFVLLPDGKRCHQLVSCPRNVSECSHDCVLTSEGPLCFCPEGSVLERDGKTCSGCSSPDNGGCSQLCVPLSPVSWECDCFPGYDLQLDEKSCAASGPQPFLLFANSQDIRHMHFDGTDYGTLLSQQMGMVYALDHDPVENKIYFAHTALKWIERANMDGSQRERLIEEGVDVPEGLAVDWIGRRFYWTDRGKSLIGRSDLNGKRSKIITKENISQPRGIAVHPMAKRLFWTDTGINPRIESSSLQGLGRLVIASSDLIWPSGITIDFLTDKLYWCDAKQSVIEMANLDGSKRRRLTQNDVGHPFAVAVFEDYVWFSDWAMPSVMRVNKRTGKDRVRLQGSMLKPSSLVVVHPLAKPGADPCLYQNGGCEHICKKRLGTAWCSCREGFMKASDGKTCLALDGHQLLAGGEVDLKNQVTPLDILSKTRVSEDNITESQHMLVAEIMVSDQDDCAPVGCSMYARCISEGEDATCQCLKGFAGDGKLCSDIDECEMGVPVCPPASSKCINTEGGYVCRCSEGYQGDGIHCLDIDECQLGEHSCGENASCTNTEGGYTCMCAGRLSEPGLICPDSTPPPHLREDDHHYSVRNSDSECPLSHDGYCLHDGVCMYIEALDKYACNCVVGYIGERCQYRDLKWWELRHAGHGQQQKVIVVAVCVVVLVMLLLLSLWGAHYYRTQKLLSKNPKNPYEESSRDVRSRRPADTEDGMSSCPQPWFVVIKEHQDLKNGGQPVAGEDGQAADGSMQPTSWRQEPQLCGMGTEQGCWIPVSSDKGSCPQVMERSFHMPSYGTQTLEGGVEKPHSLLSANPLWQQRALDPPHQMELTQ
modifications: Pro-epidermal growth factor IRDye 700DX conjugate
% Healthy [1]: 60%
% Necrotic [1]: 20%
Cells/mL [1]: 3.4 × 10^5 Cells/mL
Est % Viability [1]: 60-70%
Low % Vitality [1]: 19%
dead irradiated cells ([2]; 10 min incubation, panitumumab probe about 0.1 μM, EGF probe 0.5 μM, 24 hours post irradiation): 36%
necrotic cells after irradiation ([2]; irradiation 24 J/cm^2 (figure legend)): 36%
JC-1 % shift [3]: 42%
% Healthy [4, 9]: 72%
% Necrotic [4, 9]: 10%
Cells/mL [4, 9]: 4.6 × 10^5 Cells/mL
Early % Apoptotic [4, 9]: 8%
Late % Apoptotic [4, 9]: 11%
% Healthy [4, 10]: 61%
% Necrotic [4, 10]: 16%
Cells/mL [4, 10]: 4.8 × 10^5 Cells/mL
Early % Apoptotic [4, 10]: 5%
Late % Apoptotic [4, 10]: 18%
% Healthy [4, 11]: 52%
% Necrotic [4, 11]: 17%
Cells/mL [4, 11]: 4 × 10^5 Cells/mL
Early % Apoptotic [4, 11]: 6%
Late % Apoptotic [4, 11]: 26%
% Healthy [4, 12]: 52%
% Necrotic [4, 12]: 15%
Cells/mL [4, 12]: 4 × 10^5 Cells/mL
Early % Apoptotic [4, 12]: 9%
Late % Apoptotic [4, 12]: 24%
% Healthy ([4]; 1 μM, No Irradiation): 87%
% Necrotic ([4]; 1 μM, No Irradiation): 3%
Cells/mL ([4]; 1 μM, No Irradiation): 5.4 × 10^5 Cells/mL
Early % Apoptotic ([4]; 1 μM, No Irradiation): 6%
Late % Apoptotic ([4]; 1 μM, No Irradiation): 4%
mode of cell death ([4]; irradiating light at about 32 J/cm^2): undergo apoptosis
effect on cells (morphology) ([5]; irradiated 10 minutes, 32 J/cm^2): severely affected by the irradiating energy and were dying
Cells/mL ([5]; irradiated (I) 10 minutes, 32 J/cm^2, 700DX-EGF 0.5 μM, 700DX-Pan about 0.1 μM): 2.8 × 10^5 Cells/mL and 4.1 × 10^5 Cells/mL and 3.8 × 10^5 Cells/mL
% Vitality [5, 13]: 97.9% and 98.3% and 96.0%
Cells/mL [5, 13]: 6.6 × 10^5 Cells/mL and 8.0 × 10^5 Cells/mL and 7.7 × 10^5 Cells/mL
VB-48 % necrotic [5, 13]: 11% and 12% and 10%
cytotoxicity by cell viability ([6]; 24 h post irradiation): only the probe treated with irradiation induced cytotoxicity
effect on cell morphology ([6]; irradiation 16 J/cm^2): dramatically altered with condensation of nuclei and cell dehydration
effect on cell morphology ([6]; no irradiation (NI)): no deleterious effect on cell morphology
Caspase 3 % late apoptotic + dead cells [7]: 46%
cell morphology ([8]; 32 J/cm^2, 20 h post irradiation): appeared rounded and smaller
% Viability [8, 14]: 75.7%
Cell # [8, 14]: 0.7E6
